Consider two molecules from patent US8987424B2, “CA6 antigen-specific cytotoxic conjugate and methods of using the same” (ImmunoGen, Inc., priority 2003, dated 2015).

One data set relates to OVCAR5 tumor xenografts. Briefly: Subcutaneous OVCAR5 xenograft efficacy study. The format is in vivo, SCID mice. As to the method: (§1) OVCAR5 (FIG. 26A and FIG. 26B), TOV-21 G (FIG. 26C and FIG. 26D), HPAC (FIG. 26E and FIG. 26F), and HeLa (FIG. 26G and FIG. 26H) cells were inoculated on day 0, and immunoconjugate treatments were given on day 6 and 13. PBS control animals were euthanized once tumor volumes exceeded 1000 mm^3. The conjugate was given at a dose of 600 μg/kg DM1, corresponding to an antibody concentration 27.7 mg/kg. Tumor volume (FIG. 26A, FIG. 26C, FIG. 26E, and FIG. 26G) and body weight (FIG. 26B, FIG. 26D, FIG. 26F, and FIG. 26H) of the mice were monitored during the course of the study.
(§2) muDS6-DM 1 activity was further tested on a panel of subcutaneous xenograft models (see FIG. 26). […] OVCAR5 cells and TOV-21 G are ovarian tumor cell lines; HPAC is a pancreatic tumor cell line; HeLa is a cervical tumor cell line. OVCAR5 and TOV-21G cells have low surface CA6 expression; HeLa cells have an intermediate level of surface CA6 expression; HPAC cells have a high CA6 density of surface expression. TOV-21G and HPAC cells are maytansine sensitive; OVCAR5 and HeLa cells are 2-7-fold less maytansine sensitive.
The 4 cell-lines were grown in vitro, collected, and 1×10^7 cells in a 100 μL of serum free medium were injected under the right shoulder of each mouse (6 mice per model) and allowed to grow for 6 days to an average tumor volume of 57.6±6.7 and 90.2±13.4 mm^3 for the test and control groups respectively of OVCAR5, 147.1±29.6 and 176.2±18.9 mm^3 for the test and control groups respectively of HPAC, 194.3±37.2 and 201.7±71.7 mm^3 for the test and control groups respectively of HeLa, and 96.6±22.8 and 155.6±13.4 mm^3 for the test and control groups respectively of TOV-21G, at which time drug treatment was initiated. For each model three control mice were treated with two weekly doses of PBS and three test mice were treated with two weekly doses of conjugate (600 μg/kg DM1) intravenously. Toxic responses were monitored daily during the treatment and tumor volumes and body weights were monitored throughout the study. […] The HeLa model had about a 3 week lag period before beginning exponential growth. […] For the TOV-21 G, HPAC, and HeLa models the mice remain tumor-free at day 61. In the OVCAR5 model tumors recurred at about day 45 after tumor inoculation. Thus, muDS6-DM1 treatment in this model results in a tumor growth delay of approximately 34 days. The growth delay is significant as OVCAR5 cells are less maytansine-sensitive and have low CA6 epitope expression. In models where either the CA6 epitope density is higher or the model has greater maytansine sensitivity, the tumor regression is more robust. It is important to note that only 2 doses were administered. […] It is likely that cures could be achieved with additional or higher conjugate doses.

For the next data set, the system named is TOV-21G tumor xenografts. In words: Subcutaneous TOV-21G xenograft efficacy study. The format is in vivo, SCID mice. As to the method:
as §1, §2
The 4 cell-lines were grown in vitro, collected, and 1×10^7 cells in a 100 μL of serum free medium were injected under the right shoulder of each mouse (6 mice per model) and allowed to grow for 6 days to an average tumor volume of 57.6±6.7 and 90.2±13.4 mm^3 for the test and control groups respectively of OVCAR5, 147.1±29.6 and 176.2±18.9 mm^3 for the test and control groups respectively of HPAC, 194.3±37.2 and 201.7±71.7 mm^3 for the test and control groups respectively of HeLa, and 96.6±22.8 and 155.6±13.4 mm^3 for the test and control groups respectively of TOV-21G, at which time drug treatment was initiated. For each model three control mice were treated with two weekly doses of PBS and three test mice were treated with two weekly doses of conjugate (600 μg/kg DM1) intravenously. Toxic responses were monitored daily during the treatment and tumor volumes and body weights were monitored throughout the study. […]

Data set [1] concerns Caov-3 cells. Briefly: Flow cytometry binding assay. The arrangement: species or system human. How it is done: Flow cytometric analysis was used to localize the DS6 epitope, CA6, to the cell surface. Human cell lines were obtained from the American Type Culture Collection (ATCC) with the exception of OVCAR5 (Kearse et al., Int. J. Cancer 88(6):866-872 (2000)), OVCAR8 and IGROV1 cells (M. Seiden, Massachusetts General Hospital). All cells were grown in RPMI 1640 supplemented with 4 mM L-glutamine, 50 U/ml penicillin, 50 μg/ml streptomycin (Cambrex Bio Science, Rockland, Me.) and 10% v/v fetal bovine serum (Atlas Biologicals, Fort Collins, Colo.), referred hereafter as culture media. Cells were maintained in a 37° C., 5% CO2 humidified incubator.
Cells ([…]) were incubated, on ice for 3-4 h, with serially diluted concentrations of the DS6 antibody prepared in FACS buffer (2% goat serum, RPMI) into 96-well plates. […] After two washes, the cells were fixed with 1% formaldehyde and analyzed on a flow cytometer.
The muDS6 antibody (8 mg/ml) was modified using 8-fold molar excess of N-succinimidyl-4-(2-pyridyldithio) pentanoate (SPP) to introduce dithiopyridyl groups. […] The degree of modification was determined by measuring the absorbance of the antibody at 280 nm and the DTT released 2-mercaptopyridine (Spy) at 280 and 343 nm. […] The number of DM1 molecules linked per molecule of muDS6 was determined by measuring the absorbance at both 252 nm and 280 nm of the filtered material. […]
A general note: Flow cytometry measures light scatter and fluorescence of single cells or particles in a stream.

Data set [2] has as its system Caov-3 cells. Briefly: Indirect cell viability assay with anti-mouse IgG (H+L) DM1 conjugate. The format is cell-based, human. The conditions noted are these: without secondary conjugate.
[3] abbreviates: 600 μg/kg DM1, two weekly doses.
Where [4] appears, read: 600 μg/kg DM1 i.v., two weekly doses.

B1: DS6-DM1: muDS6 antibody modified with SPP and conjugated to the maytansinoid DM1 (conjugate)
VH: QAYLQQSGAELVRSGASVKMSCKASGYTFTSYNMHWVKQTPGQGLEWIGYIYPGNGATNYNQKFKGKATLTADPSSSTAYMQISSLTSEDSAVYFCARGDSVPFAYWGQGTLVTVSA
VL: QIVLTQSPAIMSASPGEKVTITCSAHSSVSFMHWFQQKPGTSPKLWIYSTSSLASGVPARFGGSGSGTSYSLTISRMEAEDAATYYCQQRSSFPLTFGAGTKLELKR
On to B1, for which, in the data set with OVCAR5 tumor xenografts (setting [3]), the body weight result is “no weight loss was observed”, the “day of tumor recurrence after tumor inoculation” value is around 45 days and the tumor growth delay entry is “approximately 34 days”. Besides, in the data set on OVCAR5 tumor xenografts (setting [4]), the tumor regression result is “complete tumor regression in all mice”. Besides, in the data set on TOV-21G tumor xenografts (setting [3]), the body weight result was “no weight loss was observed” and the “tumor status at day 61” value is on record as “tumor-free”. In addition, the tumor regression entry in the data set on TOV-21G tumor xenografts (setting [4]) was “complete tumor regression in all mice”. In addition, the “effect of conjugation on binding affinity” value with Caov-3 cells [1] (Caov-3 cells, versus unmodified muDS6) is listed as “only a slight loss of affinity”.

B2: DS6: murine anti-CA6 monoclonal antibody DS6 (ATCC deposit number PTA-4449) (antibody, V domains shown)
VH: QAYLQQSGAELVRSGASVKMSCKASGYTFTSYNMHWVKQTPGQGLEWIGYIYPGNGATNYNQKFKGKATLTADPSSSTAYMQISSLTSEDSAVYFCARGDSVPFAYWGQGTLVTVSA
VL: QIVLTQSPAIMSASPGEKVTITCSAHSSVSFMHWFQQKPGTSPKLWIYSTSSLASGVPARFGGSGSGTSYSLTISRMEAEDAATYYCQQRSSFPLTFGAGTKLELKR
As to B2, the “activity of naked antibody in cell cultures” value in the data set with Caov-3 cells [2] is on record as “no proliferative or growth inhibitive activity”. For the same molecule, the “MMF (average maximum relative mean fluorescence)” value in the data set with Caov-3 cells [1] (Caov-3) stood at 465.20.
